Laboratory results reported in patent publication US20250360236A1, “PROSTATE SPECIFIC MEMBRANE ANTIGEN (PSMA) LIGANDS” (Deutsches Krebsforschungszentrum Stiftung des öffentlichen …, priority 2022, published 2025).
Like-named read-outs stand apart in the source and are kept apart here. Where a SMILES comes first, the peptide text is derived from it. [ ]: non-standard residue; d: D form. The star is where a group is joined. ξ: configuration not given here. X1 = CN1/C(=C/C=C/C=C/C2=[N+](CCCCCC(=O)*)c3ccc(S(=O)(=O)O)cc3C2(C)C)C(C)(C)c2cc(S(=O)(=O)[O-])ccc21; X3 = CN1/C(=C/C=C/C=C/C2=[N+](CCCCCC(=O)*)c3ccc(S(=O)(=O)[O-])cc3C2(C)C)C(C)(C)c2cc(S(=O)(=O)O)ccc21; DOTA = O=C(O)CN1CCN(CC(=O)O)CCN(CC(=O)*)CCN(CC(=O)O)CC1; EuK = O=C(O)CC[C@H](NC(=O)N[C@@H](CCCCN*)C(=O)O)C(=O)O; X2 = O=C(O)CC[C@@H](NC(=O)N[C@H](CCCCN*)C(=O)O)C(=O)O; 2Nal = N[C@@H](Cc1ccc2ccccc2c1)C(=O)O; d2Nal = N[C@H](Cc1ccc2ccccc2c1)C(=O)O; Trx = NC[C@H]1CC[C@H](C(=O)O)CC1; ξK = NCCCCC(N)C(=O)O; βAla = NCCC(=O)O; Sar = CNCC(=O)O

What was measured:
PSMA+-cells (LNCaP) = assay: Cell surface binding and internalization experiments; format: cell-based; conditions: 68Ga-labeled compounds, 30 nM, 45 min 37 °C, specific uptake by blockage with 500 μM 2-PMPA, mean ± SD n=3
Experimental: For internalization experiments, 10^5 cells per well were seeded in poly-L-lysine coated 24-well cell culture plates 24 h before incubation. After washing, the cells were incubated with 30 nM of the radiolabeled compound for 45 min at 37° C. Cellular uptake was terminated by washing 3 times with 1 mL of ice-cold PBS. To remove surface-bound radioactivity, cells were incubated twice with 0.5 mL glycine-HCl in PBS (50 mM, pH=2.8) for 5 min. The cells were washed with 1 mL of ice-cold PBS and lysed using 0.3 N NaOH (0.5 mL). The surface-bound and the internalized fractions were measured in a gamma counter. The cell uptake was calculated as percent of the initially added radioactivity bound to 10^5 cells [% ID/10^5 cells].

LNCaP xenograft tumors = conditions: cited from earlier work
in vivo = assay: in vivo; design: species or system BALB/c nu/nu mice; conditions: male, BALB/c nu/nu, mouse, iv, 0.06 nmol, total radioactivity; for tissue to tissue ratio at 1 h: LNCaP Tumor-to-Organ ratio; for tissue uptake at 1 h: Organ distribution
PSMA = molecular target: T1, PSMA (Homo sapiens, UniProt Q04609); conditions: cited from earlier work
T1 construct: determined in vitro using PSMA^+-cells (LNCaP); host or cells: LNCaP cells
T1 sequence (Q04609 whole entry): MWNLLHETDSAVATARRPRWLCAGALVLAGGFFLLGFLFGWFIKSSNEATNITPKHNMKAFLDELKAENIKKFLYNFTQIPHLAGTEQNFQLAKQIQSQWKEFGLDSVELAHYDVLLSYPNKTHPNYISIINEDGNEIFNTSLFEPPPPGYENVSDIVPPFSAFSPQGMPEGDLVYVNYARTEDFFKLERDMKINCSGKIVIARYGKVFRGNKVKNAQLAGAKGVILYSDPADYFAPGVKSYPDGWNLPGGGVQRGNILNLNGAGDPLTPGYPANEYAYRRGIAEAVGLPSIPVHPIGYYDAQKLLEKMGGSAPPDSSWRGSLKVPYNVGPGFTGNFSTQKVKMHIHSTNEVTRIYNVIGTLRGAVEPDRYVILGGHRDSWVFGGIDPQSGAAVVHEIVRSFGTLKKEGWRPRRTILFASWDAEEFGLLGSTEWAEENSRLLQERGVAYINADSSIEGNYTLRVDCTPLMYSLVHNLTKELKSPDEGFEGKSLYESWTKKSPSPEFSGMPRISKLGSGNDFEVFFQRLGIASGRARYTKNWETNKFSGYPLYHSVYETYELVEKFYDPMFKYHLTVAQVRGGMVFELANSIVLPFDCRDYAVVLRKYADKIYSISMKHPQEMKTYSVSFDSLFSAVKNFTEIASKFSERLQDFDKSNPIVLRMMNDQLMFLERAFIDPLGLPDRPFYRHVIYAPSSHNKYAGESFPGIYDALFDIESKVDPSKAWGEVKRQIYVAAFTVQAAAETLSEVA

Compound: CN(CC(=O)NC[C@H]1CC[C@H](C(=O)N[C@@H](Cc2ccc3ccccc3c2)C(=O)NCCCC[C@H](NC(=O)N[C@@H](CCC(=O)O)C(=O)O)C(=O)O)CC1)C(=O)CN(C)C(=O)CN(C)C(=O)CN(C)C(=O)CN(C)C(=O)[C@H](CCCCNC(=O)CN1CCN(CC(=O)O)CCN(CC(=O)O)CCN(CC(=O)O)CC1)NC(=O)CN(C)C(=O)CN(C)C(=O)CN(C)C(=O)CN(C)C(=O)CN(C)C(=O)CCNC(=O)CCCCC[N+]1=C(/C=C/C=C/C=C2/N(C)c3ccc(S(=O)(=O)O)cc3C2(C)C)C(C)(C)c2cc(S(=O)(=O)[O-])ccc21 [BP-1, Glu-urea-Lys-2-Nal-Chx-Sar5-Lys(DOTA)-Sar5-bAla-sulfoCy5] ({X3-βAla}-[Sar][Sar][Sar][Sar][Sar]K(DOTA)[Sar][Sar][Sar][Sar][Sar][Trx][2Nal]-EuK)
- Specifically cell surface bound (PSMA+-cells (LNCaP)): 1.3 ± 0.6 % AR/10^5 cells
- Specifically internalized (PSMA+-cells (LNCaP)): 1.1 ± 1.0 % AR/10^5 cells

Compound: ^68Ga-Glu-urea-Lys-2-Nal-Chx-Lys(IRDye800CW)-DOTA
- kidney uptake, reference compounds (LNCaP xenograft tumors; mouse, in vivo): 65.64±6.60 % ID/g

Compound: O=C([O-])CN1CCN(CC(=O)[O-])CCN(CC(=O)NCC2CCC(C(=O)N[C@@H](Cc3ccc4ccccc4c3)C(=O)NCCCC[C@H](NC(=O)N[C@@H](CCC(=O)O)C(=O)O)C(=O)O)CC2)CCN(CC(=O)[O-])CC1.[177Lu+3] (stereo partly shown) [^177Lu-PSMA-617]
- tumor uptake in LNCaP xenograft tumors, reference compounds (LNCaP xenograft tumors; reference values (4), 1 h p.i. printed for 177Lu-PSMA-617): 8.47±4.09 % ID/g
- kidney uptake, reference compounds (LNCaP xenograft tumors; reference values (4)): 137.2±77.8 % ID/g

Compound: CN(CC(=O)NC[C@H]1CC[C@H](C(=O)N[C@H](Cc2ccc3ccccc3c2)C(=O)NCCCC[C@@H](NC(=O)N[C@H](CCC(=O)O)C(=O)O)C(=O)O)CC1)C(=O)CN(C)C(=O)CN(C)C(=O)CN(C)C(=O)CN(C)C(=O)C(CCCCNC(=O)CCCCC[N+]1=C(/C=C/C=C/C=C2/N(C)c3ccc(S(=O)(=O)[O-])cc3C2(C)C)C(C)(C)c2cc(S(=O)(=O)O)ccc21)NC(=O)CN(C)C(=O)CN(C)C(=O)CN(C)C(=O)CN(C)C(=O)CN(C)C(=O)CCNC(=O)CN1CCN(CC(=O)O)CCN(CC(=O)O)CCN(CC(=O)O)CC1 (stereo partly shown) [^177Lu-BP-4, metal not drawn] ({DOTA-βAla}-[Sar][Sar][Sar][Sar][Sar][ξK](X1)[Sar][Sar][Sar][Sar][Sar][Trx][d2Nal]-X2)
- tissue to tissue ratio at 1 h (in vivo; Blood): 25.9 ± 9.14
- tissue to tissue ratio at 1 h (in vivo; Brain): 275 ± 63.6
- tissue to tissue ratio at 1 h (in vivo; Heart): 48.6 ± 15.7
- tissue to tissue ratio at 1 h (in vivo; Intestine): 49.3 ± 18.2
- tissue to tissue ratio at 1 h (in vivo; Kidney): 0.17 ± 0.08
- tissue to tissue ratio at 1 h (in vivo; Liver): 36.1 ± 6.7
- tissue to tissue ratio at 1 h (in vivo; Lung): 12.1 ± 2.03
- tissue to tissue ratio at 1 h (in vivo; Muscle): 110 ± 51.7
- tissue to tissue ratio at 1 h (in vivo; Spleen): 7.83 ± 0.85
- tissue uptake at 1 h (in vivo; Blood): 0.23 ± 0.08 %ID/g
- tissue uptake at 1 h (in vivo; Brain): 0.02 ± 0.002 %ID/g
- tissue uptake at 1 h (in vivo; Heart): 0.12 ± 0.02 %ID/g
- tissue uptake at 1 h (in vivo; Intestine): 0.12 ± 0.04 %ID/g
- tissue uptake at 1 h (in vivo; Kidney): 37.5 ± 12.1 %ID/g
- tissue uptake at 1 h (in vivo; Liver): 0.14 ± 0.01 %ID/g
- tissue uptake at 1 h (in vivo; Lung): 0.4 ± 0.04 %ID/g
- tissue uptake at 1 h (in vivo; Muscle): 0.06 ± 0.002 %ID/g
- tissue uptake at 1 h (in vivo; Spleen): 0.59 ± 0.12 %ID/g
- tissue uptake at 1 h (in vivo; Tumor LNCaP): 4.3 ± 0.27 %ID/g

Compound: [Glu-urea-Lys(Ahx)]2-HBED-CC [^68Ga-PSMA-10]
- Kd (PSMA; radioligand 68Ga-PSMA-10, reference (1)): 3.8 nM

Compound: CN(CC(=O)NC[C@H]1CC[C@H](C(=O)N[C@H](Cc2ccc3ccccc3c2)C(=O)NCCCC[C@@H](NC(=O)N[C@H](CCC(=O)O)C(=O)O)C(=O)O)CC1)C(=O)CN(C)C(=O)CN(C)C(=O)CN(C)C(=O)CN(C)C(=O)C(CCCCNC(=O)CN1CCN(CC(=O)O)CCN(CC(=O)O)CCN(CC(=O)O)CC1)NC(=O)CN(C)C(=O)CN(C)C(=O)CN(C)C(=O)CN(C)C(=O)CN(C)C(=O)CCNC(=O)CCCCC[N+]1=C(/C=C/C=C/C=C2/N(C)c3ccc(S(=O)(=O)[O-])cc3C2(C)C)C(C)(C)c2cc(S(=O)(=O)O)ccc21 (stereo partly shown) [^177Lu-BP-1, metal not drawn] ({X1-βAla}-[Sar][Sar][Sar][Sar][Sar][ξK](DOTA)[Sar][Sar][Sar][Sar][Sar][Trx][d2Nal]-X2)
- tissue to tissue ratio at 1 h (in vivo; Blood): 40 ± 4.75
- tissue to tissue ratio at 1 h (in vivo; Brain): 423 ± 81.3
- tissue to tissue ratio at 1 h (in vivo; Heart): 64.5 ± 12.8
- tissue to tissue ratio at 1 h (in vivo; Intestine): 76.3 ± 13.1
- tissue to tissue ratio at 1 h (in vivo; Kidney): 0.34 ± 0.04
- tissue to tissue ratio at 1 h (in vivo; Liver): 27.8 ± 5.94
- tissue to tissue ratio at 1 h (in vivo; Lung): 18.2 ± 4.54
- tissue to tissue ratio at 1 h (in vivo; Muscle): 165 ± 31.4
- tissue to tissue ratio at 1 h (in vivo; Spleen): 8.05 ± 1.05
- tissue uptake at 1 h (in vivo; Blood): 0.16 ± 0.02 %ID/g
- tissue uptake at 1 h (in vivo; Brain): 0.02 ± 0.001 %ID/g
- tissue uptake at 1 h (in vivo; Heart): 0.1 ± 0.004 %ID/g
- tissue uptake at 1 h (in vivo; Intestine): 0.08 ± 0.01 %ID/g
- tissue uptake at 1 h (in vivo; Kidney): 18.9 ± 4.56 %ID/g
- tissue uptake at 1 h (in vivo; Liver): 0.24 ± 0.03 %ID/g
- tissue uptake at 1 h (in vivo; Lung): 0.38 ± 0.03 %ID/g
- tissue uptake at 1 h (in vivo; Muscle): 0.04 ± 0.004 %ID/g
- tissue uptake at 1 h (in vivo; Spleen): 0.78 ± 0.03 %ID/g
- tissue uptake at 1 h (in vivo; Tumor LNCaP): 5.85 ± 1.16 %ID/g

Compound: O=C(O)CC[C@H](NC(=O)N[C@@H](CCCCNC(=O)[C@H](Cc1ccc2ccccc2c1)NC(=O)[C@H]1CC[C@H](CNC(=O)CN2CCN(CC(=O)O)CCN(CC(=O)O)CCN(CC(=O)O)CC2)CC1)C(=O)O)C(=O)O [PSMA-617, reference compound]
- Specifically cell surface bound (PSMA+-cells (LNCaP)): 0.3 ± 0.1 % AR/10^5 cells
- Specifically internalized (PSMA+-cells (LNCaP)): 1.2 ± 0.6 % AR/10^5 cells
- Ki (PSMA; ki-value for PSMA-617 from Benesova et al. (3), read-out: ki free ligands): 2.3 ± 2.9 nM

Compound: CN(CC(=O)NC[C@H]1CC[C@H](C(=O)N[C@@H](Cc2ccc3ccccc3c2)C(=O)NCCCC[C@H](NC(=O)N[C@@H](CCC(=O)O)C(=O)O)C(=O)O)CC1)C(=O)CN(C)C(=O)CN(C)C(=O)CN(C)C(=O)CN(C)C(=O)[C@H](CCCCNC(=O)CCCCC[N+]1=C(/C=C/C=C/C=C2/N(C)c3ccc(S(=O)(=O)O)cc3C2(C)C)C(C)(C)c2cc(S(=O)(=O)[O-])ccc21)NC(=O)CN(C)C(=O)CN(C)C(=O)CN(C)C(=O)CN(C)C(=O)CN(C)C(=O)CCNC(=O)CN1CCN(CC(=O)O)CCN(CC(=O)O)CCN(CC(=O)O)CC1 [BP-4, Glu-urea-Lys-2-Nal-Chx-Sar5-Lys(sulfoCy5)-Sar5-bAla-DOTA] ({DOTA-βAla}-[Sar][Sar][Sar][Sar][Sar]K(X3)[Sar][Sar][Sar][Sar][Sar][Trx][2Nal]-EuK)
- Specifically cell surface bound (PSMA+-cells (LNCaP)): 0.8 ± 1.0 % AR/10^5 cells
- Specifically internalized (PSMA+-cells (LNCaP)): 0.4 ± 0.7 % AR/10^5 cells
